Experiment [1] deals with HLA-A2 molecule on the surface of tumor cell lines (human). Put plainly: flow cytometry on U87 cells (Glioblastoma).
Experiment [2] shares this target. As to the kind of experiment: flow cytometry on U251 cells (Glioblastoma).
Experiment [3] shares this target. Put plainly: flow cytometry on JN-DSRCT cells (Desmoplastic small round cell tumor). On the technique in general: Flow cytometry measures light scatter and fluorescence of single cells or particles in a stream.
Experiment [4] has the same target. As to the kind of experiment: flow cytometry on U2 OS cells (Osteosarcoma).
Experiment [5] shares this target. Put plainly: flow cytometry on SKN-JC-2 cells (NB).
Experiment [6] shares this target. As to the kind of experiment: flow cytometry on JMN cells (Mesothelioma).
For experiment [7] the target is unchanged. Put plainly: flow cytometry on Caco-2 (HTB-37) cells (Colon).
The target is the same in experiment [8]. Put plainly: flow cytometry on BA25-17 cells (Leukemia).
Experiment [9] has the same target. As to the kind of experiment: flow cytometry on MCF-7 cells (Breast).
Experiment [10] has the same target. Put plainly: flow cytometry on Molt-4 cells (Leukemia).
Experiment [11] shares this target. Put plainly: flow cytometry on THP-1 cells (Leukemia).
For experiment [12] the target is unchanged. As to the kind of experiment: flow cytometry on SKN-JC-1 cells (NB).
Experiment [13] shares this target. As to the kind of experiment: flow cytometry on SW480 cells (Colon).
The target is the same in experiment [14]. Put plainly: flow cytometry on BA25-69 cells (Leukemia).
The target is the same in experiment [15]. As to the kind of experiment: flow cytometry on K562-HLA-A2 cells (Leukemia).
Experiment [16] has the same target. Put plainly: flow cytometry on OVCAR3-pp65 cells (Ovarian).
For experiment [17] the target is unchanged. Put plainly: flow cytometry on SKHEP-1 cells (Liver).
Experiment [18] has the same target. Put plainly: flow cytometry on SKNJB cells (NB).
For experiment [19] the target is unchanged. Put plainly: flow cytometry on MDA-MB-361(HTB-27) cells (Breast).
Experiment [20] shares this target. As to the kind of experiment: flow cytometry on HepG2 cells (Liver).
For experiment [21] the target is unchanged. Put plainly: flow cytometry on SKMEL-5 cells (Melanoma).
The target is the same in experiment [22]. As to the kind of experiment: flow cytometry on NCI-H522 cells (Non-small cell lung cancer).
Experiment [23] has the same target. Put plainly: flow cytometry on SKNLD cells (NB).
Experiment [24] has the same target. As to the kind of experiment: flow cytometry on NCI-H345 cells (Small cell lung cancer).
Experiment [25] shares this target. Put plainly: flow cytometry on LAN-1 cells (NB).
Experiment [26] has the same target. As to the kind of experiment: flow cytometry on MDA-MB-231(HTB-26) cells (Breast).
Experiment [27] has the same target. As to the kind of experiment: flow cytometry on Colo 205 cells (Colon).
Experiment [28] shares this target. Put plainly: flow cytometry on SK-ES-1 cells (Ewing's sarcoma).
Experiment [29] shares this target. As to the kind of experiment: flow cytometry on K562 cells (Leukemia).
Experiment [30] has the same target. Put plainly: flow cytometry on SKBR3 cells (Breast).
Experiment [31] has the same target. Put plainly: flow cytometry on MDA-MB-468(HTB-132) cells (Breast).
For experiment [32] the target is unchanged. Put plainly: flow cytometry on OVCAR-3 cells (Ovarian).
For experiment [33] the target is unchanged. Put plainly: flow cytometry on BV-173 cells (Leukemia).
Experiment [34] shares this target. As to the kind of experiment: flow cytometry on HTB37-pp65/GFP cells (Colon).
Experiment [35] has the same target. As to the kind of experiment: flow cytometry on SKOV-3 cells (Ovarian).
Another experiment has as its target T1, HLA-A2 on T2 cells (human).
T1 construct: No peptide added; also called T2 cells alone; T2 cells without peptide
Put plainly: T2 cells pulsed with peptide, staining with anti-HLA-A2 BB7.2.

Experiment [36] concerns the target T2, biotinylated HLA-A2/WT1126 (…) monomer (human, biotin at a specific biotinylation site at the C-terminus).
T2 construct: also called HLA-A2-WT1 monomer; WT1126/HLA-A2
Put plainly: SPR Biacore T100; biotinylated pMHC captured, antibody injected; 1:1 fit. A general note: In SPR one partner is held on a chip, and binding of the other changes the refractive index at the surface.
Description: Kinetics and affinities of various antibodies and WT1₁₂₆/HLA-A2 were analyzed by surface plasmon resonance technology using a Biacore T100 instrument (GE healthcare). Biotinylated WT1₁₂₆/HLA-A2 was captured by streptavidin-fusion protein on a sensor chip (CM5). A control reference surface was prepared for nonspecific binding and refractive index changes. For analysis of the kinetics of interactions, varying concentrations of antibodies were injected at flow rate of 30 μl/min using a running buffer containing 10 mM HEPES, 150 mM NaCl, 3 mM EDTA, and 0.05% Surfactant P-20 (pH 7.4). The association and dissociation phase data were fitted simultaneously to a 1:1 model by using BIAevaluation 3.2. All the experiments were done at 25° C.

Experiment [37] deals with HLA-A2/WT1 235-243 (…) complex (human, biotin at a specific biotinylation site at the C-terminus). As to the kind of experiment: ELISA on wells coated with the named HLA-A2/peptide monomer, HRP anti-Flag detection, OD 490 nm.
For experiment [38], the target named is HLA-A2/WT1 187-195 (…) complex (human, biotin at a specific biotinylation site at the C-terminus). The description is as above.
In experiment [39] the target is T2, biotinylated HLA-A2/WT1126 (…) monomer. As to the kind of experiment: ELISA: wells coated with HLA-A2-WT1 ([..]) monomer, serially diluted scFv, HRP anti-Flag detection, OD 490 nm. In general terms: In an ELISA, binding on a coated surface is turned into a signal by an enzyme label.
Description: (§1) The specificity of individual phage clones, soluble scFv and scFv-Fc antibodies was assessed by ELISA at RT with indirectly coated HLA-A2/peptide complexes. Vinyl flat bottom microtiter plates (Thermo Fisher) were used for ELISA assays. Plates were initially coated overnight at 4° C. with BSA-biotin (10 g/ml; 50 μl/well). The next day, the contents were discarded and the plates incubated at RT with streptavidin (10 g/ml; 50 μl/well) for 1 h. The contents were discarded and the plates incubated with recombinant biotinylated HLA-A2/peptide complexes (5 μg/ml; 50 μl/well) at RT for 1 h. The plates were then incubated with 2% milk PBS (150 μl/well) at RT for 1 h. After blocking, the plates were washed 3 times with PBS and then incubated with bacterial supernatant from their respective HB2151 culture plate wells, purified scFv, or purified scFv-Fc at RT for 1 h. After the contents were discarded, the plates were washed 5 times with PBS, and then incubated with a horse radish peroxidase (HRP) conjugated mouse-anti-Flag tag antibody (1:5000 dilution, Sigma Aldrich) to detect the scFv, or a HRP conjugated goat-anti-human Fc antibody (0.5 μg/ml, Jackson Immunoresearch Laboratories) to detect the scFv-Fc. […]
A further experiment addresses T3, HLA-A2/CDR2 (…) tetramer (human).
T3 construct: Peptide from cerebellar degeneration-related protein 2; also called negative control (HLA-A2-CDR2) tetramer; irrelevant HLA-A2/CDR2-derived peptide
Put plainly: flow cytometry of CAR NK-92 cells, control HLA-A2/CDR2 tetramer (y) against GFP (x).

Experiment [40] has as its target T2, biotinylated HLA-A2/WT1126 (…) monomer. Put plainly: ELISA: wells coated with HLA-A2-WT1 (…) monomer, serially diluted scFv, HRP anti-Flag detection, OD 490 nm.
Description: as §1

Results on eleven molecules are retold here after patent publication US20160152725A1 (Memorial Sloan Kettering, published 2016).

Residue numbers refer to the chain shown, from its start. Numbers in names are those of the source.

Consider BB7.2 (antibody), for which the Ratio (BB7.2/isotype) of mean fluorescence intensity was 77.5 in experiment [1]; 16.2 in [2]; 5.1 in [3]; 21.7 in experiment [4]; 53.3 in experiment [5]; 165 in experiment [6]. Besides, the Ratio (BB7.2/isotype) of mean fluorescence intensity turned out to be 26.8 in experiment [7]; 118 in experiment [8]; 9.9 in experiment [9]; 1.1 in experiment [10]; 53.9 in [11]; 86.8 in experiment [12]. Further, the Ratio (BB7.2/isotype) of mean fluorescence intensity in [13] stood at 40.5; in [14], 114; in experiment [15], 28.8; in experiment [16] it was 10; in experiment [17] it was 28.3; in [18], 6.4. Moreover, the Ratio (BB7.2/isotype) of mean fluorescence intensity in experiment [19] stood at 0.9; in [20] it was 14.4; in [21], 32.1; in experiment [22], 15.8; in experiment [23], 0.9; in experiment [24], 6.2. The Ratio (BB7.2/isotype) of mean fluorescence intensity came to 4.5 in experiment [25]; 111 in [26]; 32.6 in experiment [27]; 7.7 in [28]; 1.1 in experiment [29]; 1.1 in [30]. For the same molecule, the Ratio (BB7.2/isotype) of mean fluorescence intensity in experiment [31] came out at 1.1; in experiment [32], 7.8; in [33], 209; in experiment [34], 10.9; in [35], 1.

B1: WT1126 peptide (RMFPNAPYL) by itself (peptide)
peptide: RMFPNAPYL
notes: also called WT1 peptide
For the molecule B1, the binding result with HLA-A2 on T2 cells is “binds”.

B2: WT1126-Tyr8Ala peptide (peptide)
peptide: RMFPNAPAL
notes: also called A8
Regarding B2, the binding result with HLA-A2 on T2 cells is “binds”.

B3: WT1126-Asn5Ala peptide (peptide)
peptide: RMFPAAPYL
notes: also called A5
On to B3, for which, in the experiment with HLA-A2 on T2 cells, the binding result is recorded as “binds”.

B4: WT1126-Arg1Ala peptide (peptide)
peptide: AMFPNAPYL
notes: also called A1
B4: the binding result in the experiment with HLA-A2 on T2 cells is on record as “binds”.

B5: Q1L scFv (scFv)
scFv: EVQLLESGGGLVQPGGSLRLSCAASGFTFSSYAMSWVRQAPGKGLEWVSLIDPWGQETLYADSVKGRFTISRDNSKNTLYLQMNSLRAEDTAVYYCAKLTGRFDYWGQGTLVTVSSGGGGSGGGGSGGGGSTDIQMTQSPSSLSASVGDRVTITCRASQSISSYLNWYQQKPGKAPKLLIYSASQLQSGVPSRFSGSGSGTDFTLTISSLQPEDFATYYCQQGPGTPNTFGQGTKVEIKRA
notes: Clone45 with VH-Q50L; Soluble scFv; also called scFv Q1L
As for B5, in experiment [36], the Kd (as a rule, the free concentration of one partner at which half of the binding sites on the other are occupied at equilibrium, for simple one-to-one binding) was determined as 58.3 nM; the koff (usually the first-order rate constant of dissociation) is 0.0055 s⁻¹; the kon (usually the rate constant with which the complex forms) is 94300 M⁻¹ s⁻¹.

B6: S3.6 scFv (scFv)
scFv: B5 scFv with S163N, D202V
notes: Soluble scFv, Ni-NTA purified, detected with anti-Flag
Take B6: the binding result in experiment [37] and in experiment [38] was “no binding” each time. In experiment [36], this molecule displayed a Kd of 14.1 nM.

B7: S3.3 scFv (scFv)
scFv: B5 scFv with D133N, Q185L, S197N
notes: as for B6
For B7, the binding result in [37] and in experiment [38] was “no binding” each time. In addition, binding in [36] was characterised by a dissociation constant (Kd) of 2.43 nM. For the same molecule, the EC50 (read off the curve) (in general, the concentration at which the effect is half-maximal) in experiment [39] is approximately 40 nM.

B8: Q2L-CAR (other)
chain: B5 scFv with Q185L
notes: Chimeric antigen receptor on the surface of human T cells or NK-92-MI cells; also called anti-HLA-A2/WT1126 CAR; NK-92-MI-scFv(Q2L); not shown: hinge region, CD8 alpha transmembrane domain, 4-1BB and CD3 zeta chain
With B8, the binding result with HLA-A2/CDR2 (…) tetramer is on record as “no binding”.

B9: Q2L scFv (scFv)
scFv: B5 scFv with Q185L
notes: Clone45 with VH-Q50L and VL-Q53L; Soluble scFv; also called scFv Q2L
For B9, the binding result in experiment [37] and in [38] was “no binding” throughout. The molecule also yielded a Kd in [36] of 3.08 nM. For the same molecule, the “EC50 (read off the curve)” value in [40] was approximately 100 nM.

B10: S3.1 scFv (scFv)
scFv: B5 scFv with R87G, S209N
notes: as for B6
On to B10, for which the binding result in experiment [37] and in experiment [38] was “no binding” each time. Further, the Kd in experiment [36] worked out at 12.9 nM. Besides, in experiment [39], the “EC50 (read off the curve)” value was approximately 60 nM.
